The text below walks through data of US20240398973A1, “ENGINEERED ANTIBODY COMPOUNDS AND CONJUGATES THEREOF” (Eli Lilly and Company, priority 2017, published 2024).

In this assay the target is formyl peptide receptor 1 (FPR1) on primary human polymorphonuclear neutrophils (human) (UniProt P21462). Briefly: cell-based or functional assay.

Substance “Peptide-'183, formyl-Met-Leu-Phe-Lys(Mal-PEG12)-OH with hydrolyzed maleimido group (unconjugated peptide)” had an EC50 of PMN ROS production of 103 nM, a PMN ROS production at 1 pM (percent relative to 10 uM fMLF) of 6.9%, a PMN ROS production at 10 pM (percent relative to 10 uM fMLF) of 7.4% and a PMN ROS production at 100 pM (percent relative to 10 uM fMLF) of 7.5%. The substance further registered a PMN ROS production at 1 nM (percent relative to 10 uM fMLF) of 8.8%, a PMN ROS production at 10 nM (percent relative to 3000 nM fMLF) of 3.6%, a PMN ROS production at 10 nM (percent relative to 10 uM fMLF) of 31.3% and a PMN ROS production at 30 nM (percent relative to 3000 nM fMLF) of 12.2%. Further, the PMN ROS production at 100 nM (percent relative to 3000 nM fMLF) was 49.9%, the PMN ROS production at 100 nM (percent relative to 10 uM fMLF) was determined as 76.6%, the PMN ROS production at 300 nM (percent relative to 3000 nM fMLF) was 76.2% and the PMN ROS production at 1 µM (percent relative to 10 uM fMLF) was 94%. The substance also showed a PMN ROS production at 1000 nM (percent relative to 3000 nM fMLF) of 94.3%, a PMN ROS production at 3000 nM (percent relative to 3000 nM fMLF) of 99.5%, a PMN ROS production at 10 µM (percent relative to 10 uM fMLF) of 107% and a PMN ROS production at 10000 nM (percent relative to 3000 nM fMLF) of 89.1%. The substance further displayed a PMN migration at 1 nM (percent relative to 100 nM fMLF) of 150%, a PMN migration at 3 nM (percent relative to 100 nM fMLF) of 167%, a PMN migration at 10 nM (percent relative to 100 nM fMLF) of 145% and a PMN migration at 30 nM (percent relative to 100 nM fMLF) of 118%. The same substance had a PMN migration at 100 nM (percent relative to 100 nM fMLF) of 84.2%, a PMN migration at 300 nM (percent relative to 100 nM fMLF) of 50.4% and a PMN migration at 1000 nM (percent relative to 100 nM fMLF) of 33.6%.
For the substance “Tmab-G1-fMIFL-HC124C-378C-(PEG3) (antibody)”, the EC50 of PMN ROS production was 31.3 nM.
Same read-out and setting: next, “Tmab-G1-fMIFL-HC124C-378C-(PEG6) (antibody)”: 13.6 nM; “Tmab-G1-fMIFL-HC124C-378C-(PEG12) (antibody)”: 36.4 nM.
